B1: 1B2 (antibody, V domains shown)
VH: EVQLVESGGVLVKPGGSLKLSCAASGFTFSDYYMYWVRQTPEKRLEWVATISDDGNYTNYPDSVKGRFTISRDNAKNNLYLQMSSLKSEDTAMYYCARGWLLPVFAYWGQGTLVTVSA
VL: DIVLTQSPATLSVTPGDSVSLSCRASQSIGNNLHWYQQKSHESPRLLIKYTSQSISGIPSRFSGSGSGTDFTLNINSVETEDFGVYFCQQSNRWPWTFGGGTKLEIK
notes: also called NAb 1B2
B2: 12E2 (antibody, V domains shown)
VH: EVKLVESGGGLVQPGGSLKLSCATSGFTFSDYYMFWVRQTPEKKLEWVAYISNGGGSTYYPDTVKGRFTISRDNDKNTLYLQMSRLKSDDTALYYCVRPKRDFQYLYAMDYWGQGTSVTVSS
VL: DIVLTQSPASLAVSLGQRATISCRASKSVSTSGYSYMHWYQQKPGQSPKLLIYLASNLESGVPARFSGSGSGTDFTLNIHPVEDEDAATYYCQHSRELPWTFGGGTKLEIK
notes: also called NAb 12E2
B3: 4A3 (antibody, V domains shown)
VH: QVQLQQPGPELVRPGASVKLSCKASGYTFTIYWMNWVKQRPGQGLEWIGMIDPSDSETHYNQMFKDKATLTVDKSSSTAYMQLSSLTSEDSAVYYCASSGTGAYWGQGTLLTVSA
VL: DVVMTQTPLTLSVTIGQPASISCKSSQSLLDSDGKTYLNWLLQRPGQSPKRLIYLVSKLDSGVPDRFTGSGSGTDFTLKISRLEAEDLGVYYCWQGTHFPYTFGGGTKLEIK
notes: also called NAb 4A3

Columns and labels:
[1] = target: T1, gH/gL/UL128/UL130/UL131A pentamer complex expressed from MVA-PC in BHK-21 cells (human cytomegalovirus, UniProt P12824 24-743; P16832 31-278; P16837 28-171; P16772 1-214; F5HET4 19-129); assay: FC competition, MVA-PC BHK-21; unlabelled row Ab; competitor: biotinylated 21F6
T1 construct: whole, on cells

[2] = target: T1, gH/gL/UL128/UL130/UL131A pentamer …; assay: FC competition, MVA-PC BHK-21; unlabelled row Ab; competitor: biotinylated 1B2
[3] = target: T1, gH/gL/UL128/UL130/UL131A pentamer …; assay: FC, biotinylated NAb titrated on MVA-PC-infected BHK-21 (cell surface PC)
[4] = target: T1, gH/gL/UL128/UL130/UL131A pentamer …; assay: FC competition, MVA-PC BHK-21; unlabelled row Ab; competitor: biotinylated 13B5
[5] = target: gH/gL/UL128/UL130/UL131A pentamer complex (PC) of HCMV strain TB40/E virus (human cytomegalovirus strain TB40/E); assay: cell-based or functional assay
[6] = target: gH/gL/UL128/UL130/UL131A pentamer complex (PC) of HCMV strain TR virus (human cytomegalovirus strain TR); assay: cell-based or functional assay
[7] = target: T1, gH/gL/UL128/UL130/UL131A pentamer …; assay: FC competition, MVA-PC BHK-21; unlabelled row Ab; competitor: biotinylated 12E2
[8] = target: T2, gH expressed from MVA in BHK-21 cells (human cytomegalovirus, UniProt P12824 24-743); assay: intracellular FC, MVA-infected BHK-21
T2 construct: whole, on cells

[9] = target: T3, UL128 expressed from MVA in BHK-21 cells (human cytomegalovirus, UniProt P16837 28-171); assay: intracellular FC, MVA-infected BHK-21
T3 construct: whole, on cells
T3 sequence: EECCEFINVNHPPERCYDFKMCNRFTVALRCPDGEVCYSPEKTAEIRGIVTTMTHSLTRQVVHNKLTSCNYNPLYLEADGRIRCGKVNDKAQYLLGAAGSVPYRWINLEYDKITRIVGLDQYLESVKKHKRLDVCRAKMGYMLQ

[10] = target: T4, gH/gL/UL130 co-expressed from MVA in BHK-21 cells (human cytomegalovirus, UniProt P12824 24-743; P16832 31-278; P16772 1-214); assay: intracellular FC, MVA-infected BHK-21
T4 construct: whole, on cells

[11] = target: T5, UL128/UL131A co-expressed from MVA in BHK-21 cells (human cytomegalovirus, UniProt P16837 28-171; F5HET4 19-129); assay: intracellular FC, MVA-infected BHK-21
T5 construct: whole, on cells

[12] = target: T6, UL131A expressed from MVA in BHK-21 cells (human cytomegalovirus, UniProt F5HET4 19-129); assay: intracellular FC, MVA-infected BHK-21
T6 construct: whole, on cells

[13] = target: T7, gH/gL/UL130/UL131A co-expressed from MVA in BHK-21 cells (human cytomegalovirus, UniProt P12824 24-743; P16832 31-278; P16772 1-214; F5HET4 19-129); assay: intracellular FC, MVA-infected BHK-21
T7 construct: whole, on cells

[14] = target: T8, UL130 expressed from MVA in BHK-21 cells (human cytomegalovirus, UniProt P16772 1-214); assay: intracellular FC, MVA-infected BHK-21
T8 construct: whole, on cells

[15] = target: T9, gH/gL/UL128 co-expressed from MVA in BHK-21 cells (human cytomegalovirus, UniProt P12824 24-743; P16832 31-278; P16837 28-171); assay: intracellular FC, MVA-infected BHK-21
T9 construct: whole, on cells

[16] = target: T10, gH/gL/UL128/UL131A co-expressed from MVA in BHK-21 cells (human cytomegalovirus, UniProt P12824 24-743; P16832 31-278; P16837 28-171; F5HET4 19-129); assay: intracellular FC, MVA-infected BHK-21
T10 construct: whole, on cells

[17] = target: T11, gH/gL/UL128/UL130 co-expressed from MVA in BHK-21 cells (human cytomegalovirus, UniProt P12824 24-743; P16832 31-278; P16837 28-171; P16772 1-214); assay: intracellular FC, MVA-infected BHK-21
T11 construct: whole, on cells

[18] = target: T12, gH/gL co-expressed from MVA in BHK-21 cells (human cytomegalovirus, UniProt P12824 24-743; P16832 31-278); assay: intracellular FC, MVA-infected BHK-21
T12 construct: whole, on cells

[19] = target: T13, UL128/UL130 co-expressed from MVA in BHK-21 cells (human cytomegalovirus, UniProt P16837 28-171; P16772 1-214); assay: intracellular FC, MVA-infected BHK-21
T13 construct: whole, on cells

[20] = target: T14, UL130/UL131A co-expressed from MVA in BHK-21 cells (human cytomegalovirus, UniProt P16772 1-214; F5HET4 19-129); assay: intracellular FC, MVA-infected BHK-21
T14 construct: whole, on cells

[21] = target: T15, gH/gL/UL131A co-expressed from MVA in BHK-21 cells (human cytomegalovirus, UniProt P12824 24-743; P16832 31-278; F5HET4 19-129); assay: intracellular FC, MVA-infected BHK-21
T15 construct: whole, on cells

[22] = target: T1, gH/gL/UL128/UL130/UL131A pentamer …; assay: FC competition, MVA-PC BHK-21; unlabelled row Ab; competitor: biotinylated 54E11
[23] = target: T1, gH/gL/UL128/UL130/UL131A pentamer …; assay: FC competition, MVA-PC BHK-21; unlabelled row Ab; competitor: biotinylated 18F10

Binder	IC50, neutralization of TB40/E infection of ARPE-19 [5] [µg/mL]	IC50, neutralization of TB40/E infection of HUVEC [5] [µg/mL]	IC50, neutralization of TB40/E infection of MRC-5 [5] [µg/mL]	IC50, neutralization of TR infection of ARPE-19 [6] [µg/mL]	IC50, neutralization of TR infection of HUVEC [6] [µg/mL]	IC50, neutralization of TR infection of MRC-5 [6] [µg/mL]	binding result [8]	binding result [9]	binding result [10]	binding result [11]	binding result [12]	binding result [13]	binding result [14]	binding result [15]	binding result [16]	binding result [17]	binding result [18]	binding result [19]	binding result [20]	binding result [21]	other results
B1	0.0006	0.0005	> 25	0.0003	0.0007	> 25	no binding	no binding	no binding	no binding	no binding	no binding	no binding	no binding	no binding	no binding	no binding	no binding	no binding	no binding	Binding Inhibition (%) [1]: 0%; Binding Inhibition (%) [2]: 100%; EC50 [3]: 320 pM; Binding Inhibition (%) [4]: 0%; IC50, inhibition of TB40/E cell-to-cell spread in ARPE-19 [5]: 1 µg/mL; IC50, neutralization of TB40/E infection of CTB [5]: 0.0126 µg/mL; IC50, inhibition of TR cell-to-cell spread in ARPE-19 [6]: 1.4 µg/mL; Binding Inhibition (%) [7]: 100%; Binding Inhibition (%) [22]: 0%; Binding Inhibition (%) [23]: 0%
B2	0.0037	0.006	> 25	0.0031	0.0042	> 25	no binding	no binding	no binding	no binding	no binding	no binding	no binding	no binding	no binding	no binding	no binding	no binding	no binding	no binding	Binding Inhibition (%) [1]: 0%; Binding Inhibition (%) [2]: 100%; EC50 [3]: 1100 pM; Binding Inhibition (%) [4]: 0%; IC50, inhibition of TB40/E cell-to-cell spread in ARPE-19 [5]: 15 µg/mL; IC50, neutralization of TB40/E infection of CTB [5]: 0.0721 µg/mL; IC50, inhibition of TR cell-to-cell spread in ARPE-19 [6]: 17 µg/mL; Binding Inhibition (%) [7]: 100%; Binding Inhibition (%) [22]: 0%; Binding Inhibition (%) [23]: 0%
B3	0.0802	0.0464	> 25	0.0446	0.0102	> 25	no binding	no binding	no binding	no binding	no binding	no binding	no binding	no binding	no binding	no binding	no binding	no binding	no binding	no binding	–

Source: patent US20180230200A1 (CITY OF HOPE, published 2018)
